{
  "source": "paper PMC11051896",
  "test_system": "T1, CcpA (Lactococcus lactis N8), ORF:ea67f8fe",
  "T1 sequence": "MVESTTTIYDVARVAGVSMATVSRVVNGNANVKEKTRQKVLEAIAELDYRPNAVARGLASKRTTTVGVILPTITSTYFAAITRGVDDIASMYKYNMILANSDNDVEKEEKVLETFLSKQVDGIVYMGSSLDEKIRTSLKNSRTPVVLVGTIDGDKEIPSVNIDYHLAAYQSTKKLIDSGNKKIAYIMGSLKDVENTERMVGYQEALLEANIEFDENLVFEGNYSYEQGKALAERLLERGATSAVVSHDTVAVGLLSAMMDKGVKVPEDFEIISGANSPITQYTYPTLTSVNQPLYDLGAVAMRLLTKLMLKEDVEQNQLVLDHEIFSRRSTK",
  "assay": "MST",
  "settings": "MST: Cy5-DNA 375 nM stock (10 uL per tube), CcpA from 15 uM in 16 two-fold dilutions; assay buffer, salt, pH and temperature not stated (protein purified in …)",
  "data": [
    {"sequence": "AGCCAGTGGCGATAAGTACGATAAAATATTTAAAAGTCTATATATACCAAGGAAGAAAACGCTTTAAATTTTTGTAAATTATTAGAAATAATGATAG (double strand) [N8-1-cre]", "values": [
      {"measurement": "Kd", "result": 44, "unit": "nM"}
    ]},
    {"sequence": "AGCCAGTGGCGATAAGTACGATAAAATATTTAAAAGTCTATATATACCAAGGAAGAAAACTCTTTAAATTTTTGTAAATTATTAGAAATAATGATAG (double strand) [N8-2-cre]", "values": [
      {"measurement": "binding", "result": "no binding"}
    ]}
  ]
}
